From publication PMC7611026 (Journal of molecular biology, 2008) come the findings set out here.

For assay [1], the target named is T1, RhlB, individually prepared recombinant (E. coli, UniProt P0A8J8 1-421).
T1 sequence: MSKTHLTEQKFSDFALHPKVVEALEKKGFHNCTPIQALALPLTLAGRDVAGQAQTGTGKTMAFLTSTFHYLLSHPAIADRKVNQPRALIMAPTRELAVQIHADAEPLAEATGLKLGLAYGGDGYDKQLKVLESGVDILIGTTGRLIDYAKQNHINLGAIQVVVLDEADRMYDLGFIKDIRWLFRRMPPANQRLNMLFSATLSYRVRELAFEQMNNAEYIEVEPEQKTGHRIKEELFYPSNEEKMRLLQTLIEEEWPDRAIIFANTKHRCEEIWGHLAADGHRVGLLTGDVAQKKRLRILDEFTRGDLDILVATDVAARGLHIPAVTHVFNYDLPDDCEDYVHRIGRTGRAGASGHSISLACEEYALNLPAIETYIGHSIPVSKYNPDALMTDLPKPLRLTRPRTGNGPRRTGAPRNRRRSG
Description: cross-linking.

Assay [2] deals with RNase E, genomically encoded, C-terminally FLAG-tagged (rne-FLAG, strain TM522) (E. coli K12, UniProt P21513 1-1061). Description: co-IP.
Chain of RNase E, genomically encoded, C-terminally FLAG-tagged (rne-FLAG, strain TM522) (P21513 whole entry): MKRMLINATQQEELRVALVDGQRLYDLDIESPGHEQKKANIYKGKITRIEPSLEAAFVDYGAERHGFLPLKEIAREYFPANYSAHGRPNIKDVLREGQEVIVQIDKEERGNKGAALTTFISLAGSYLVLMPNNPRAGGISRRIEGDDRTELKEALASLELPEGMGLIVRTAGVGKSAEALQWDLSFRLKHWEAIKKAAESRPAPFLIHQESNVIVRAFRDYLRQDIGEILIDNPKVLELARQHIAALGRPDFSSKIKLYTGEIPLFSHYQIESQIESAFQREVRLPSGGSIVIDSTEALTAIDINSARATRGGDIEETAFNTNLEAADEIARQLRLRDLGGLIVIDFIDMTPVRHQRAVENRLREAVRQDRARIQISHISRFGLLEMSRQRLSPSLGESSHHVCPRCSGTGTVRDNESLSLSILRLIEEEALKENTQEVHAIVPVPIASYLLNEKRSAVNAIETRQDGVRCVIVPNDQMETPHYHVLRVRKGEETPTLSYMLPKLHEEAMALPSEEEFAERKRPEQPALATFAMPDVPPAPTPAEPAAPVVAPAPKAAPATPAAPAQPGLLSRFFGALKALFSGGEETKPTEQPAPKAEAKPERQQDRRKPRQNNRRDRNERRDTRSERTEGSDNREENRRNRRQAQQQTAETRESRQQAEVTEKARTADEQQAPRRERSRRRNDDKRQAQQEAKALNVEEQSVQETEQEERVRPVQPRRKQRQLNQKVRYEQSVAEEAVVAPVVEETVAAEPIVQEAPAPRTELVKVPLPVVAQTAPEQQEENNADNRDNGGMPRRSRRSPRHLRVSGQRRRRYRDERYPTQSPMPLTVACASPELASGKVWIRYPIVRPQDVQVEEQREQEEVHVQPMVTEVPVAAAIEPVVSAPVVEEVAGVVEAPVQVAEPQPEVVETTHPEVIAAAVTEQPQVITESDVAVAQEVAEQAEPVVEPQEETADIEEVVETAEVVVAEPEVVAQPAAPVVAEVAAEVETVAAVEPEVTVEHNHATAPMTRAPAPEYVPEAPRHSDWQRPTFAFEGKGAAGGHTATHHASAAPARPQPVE
The target in assay [3] is RNase E(1–762), hexahistidine-tagged, coexpressed with RhlB (E. coli) (UniProt P21513). Put plainly: pull-down + SEC.
Chain of RNase E(1–762), hexahistidine-tagged, coexpressed with RhlB (E. coli) (P21513 1-762): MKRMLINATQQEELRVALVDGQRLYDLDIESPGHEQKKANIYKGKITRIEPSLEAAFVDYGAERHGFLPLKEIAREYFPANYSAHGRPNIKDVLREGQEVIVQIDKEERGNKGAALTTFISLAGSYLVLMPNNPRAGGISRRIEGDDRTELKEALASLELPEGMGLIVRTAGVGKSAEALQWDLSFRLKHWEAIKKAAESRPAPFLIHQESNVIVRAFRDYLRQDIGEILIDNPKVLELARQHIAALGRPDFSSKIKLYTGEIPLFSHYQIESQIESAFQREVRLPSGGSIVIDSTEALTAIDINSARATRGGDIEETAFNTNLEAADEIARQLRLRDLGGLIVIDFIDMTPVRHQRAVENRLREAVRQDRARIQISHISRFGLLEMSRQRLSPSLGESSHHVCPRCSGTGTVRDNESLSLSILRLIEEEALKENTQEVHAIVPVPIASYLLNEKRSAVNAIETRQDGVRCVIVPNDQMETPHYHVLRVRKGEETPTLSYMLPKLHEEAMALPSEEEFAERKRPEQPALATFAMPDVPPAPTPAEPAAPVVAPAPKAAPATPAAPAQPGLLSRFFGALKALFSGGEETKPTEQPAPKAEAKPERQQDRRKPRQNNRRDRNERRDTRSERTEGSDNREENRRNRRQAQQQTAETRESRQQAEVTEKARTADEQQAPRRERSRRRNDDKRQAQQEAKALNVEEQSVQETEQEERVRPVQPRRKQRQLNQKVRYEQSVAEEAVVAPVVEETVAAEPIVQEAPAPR

B1: RNase E(628–843) (domain or fragment)
chain: ERTEGSDNREENRRNRRQAQQQTAETRESRQQAEVTEKARTADEQQAPRRERSRRRNDDKRQAQQEAKALNVEEQSVQETEQEERVRPVQPRRKQRQLNQKVRYEQSVAEEAVVAPVVEETVAAEPIVQEAPAPRTELVKVPLPVVAQTAPEQQEENNADNRDNGGMPRRSRRSPRHLRVSGQRRRRYRDERYPTQSPMPLTVACASPELASGKVW
As for B1, the binding result in assay [1] is “binds”.

B2: PNPase, endogenous, in the cell-extracted FLAG-tagged degradosome (enzyme)
chain: MLNPIVRKFQYGQHTVTLETGMMARQATAAVMVSMDDTAVFVTVVGQKKAKPGQDFFPLTVNYQERTYAAGRIPGSFFRREGRPSEGETLIARLIDRPIRPLFPEGFVNEVQVIATVVSVNPQVNPDIVAMIGASAALSLSGIPFNGPIGAARVGYINDQYVLNPTQDELKESKLDLVVAGTEAAVLMVESEAQLLSEDQMLGAVVFGHEQQQVVIQNINELVKEAGKPRWDWQPEPVNEALNARVAALAEARLSDAYRITDKQERYAQVDVIKSETIATLLAEDETLDENELGEILHAIEKNVVRSRVLAGEPRIDGREKDMIRGLDVRTGVLPRTHGSALFTRGETQALVTATLGTARDAQVLDELMGERTDTFLFHYNFPPYSVGETGMVGSPKRREIGHGRLAKRGVLAVMPDMDKFPYTVRVVSEITESNGSSSMASVCGASLALMDAGVPIKAAVAGIAMGLVKEGDNYVVLSDILGDEDHLGDMDFKVAGSRDGISALQMDIKIEGITKEIMQVALNQAKGARLHILGVMEQAINAPRGDISEFAPRIHTIKINPDKIKDVIGKGGSVIRALTEETGTTIEIEDDGTVKIAATDGEKAKHAIRRIEEITAEIEVGRVYTGKVTRIVDFGAFVAIGGGKEGLVHISQIADKRVEKVTDYLQMGQEVPVKVLEVDRQGRIRLSIKEATEQSQPAAAPEAPAAEQGE
Regarding B2, in assay [2], the “PNPase component in aceE/aceF-null cells relative to wild-type control cells” value is approximately 3 fold and the “stoichiometry N” value is ~2 PNPase monomers per RNase E monomer.

B3: RNA helicase B (RhlB), recombinant, coexpressed with RNase E from pRSF_rnerhlB (enzyme)
chain: T1 sequence
Take B3: the stoichiometry N (RhlB protomer per RNase E protomer) in assay [3] turned out to be 1.
